# Results taken from patent US20120003684A1, “Method and Means for Detecting the Activity of Osteoclasts” (TECHNISCHE UNIVERSITAET DRESDEN, priority 2009, published 2012).
# B1: MCSF: macrophage colony-stimulating factor, cytokine added for osteoclast differentiation (protein, UniProt P09603 33-554, looked up)
# Macrophage colony-stimulating …: EEVSEYCSHMIGSGHLQSLQRLIDSQMETSCQITFEFVDQEQLKDPVCYLKKAFLLVQDIMEDTMRFRDNTPNAIAIVQLQELSLRLKSCFTKDYEEHDKACVRTFYETPLQLLEKVKNVFNETKNLLDKDWNIFSKNCNNSFAECSSQDVVTKPDCNCLYPKAIPSSDPASVSPHQPLAPSMAPVAGLTWEDSEGTEGSSLLPGEQPLHTVDPGSAKQRPPRSTCQSFEPPETPVVKDSTIGGSPQPRPSVGAFNPGMEDILDSAMGTNWVPEEASGEASEIPVPQGTELSPSRPGGGSMQTEPARPSNFLSASSPLPASAKGQQPADVTGTALPRVGPVRPTGQDWNHTPQKTDHPSALLRDPPEPGSPRISSLRPQGLSNPSTLSAQPQLSRSHSSGSVLPLGELEGRRSTRDRRSPAEPEGGPASEGAARPLPRFNSVPLTDTGHERQSEGSFSPQLQESVFHLLVPSVILVLLAVGGLLFYRWRRRSHQEPQRADSPLEQPEGSPLTQDDRQVELPV
# B2: interferon-y: inhibitor of osteoclast activity (protein, UniProt P01579 24-161, looked up)
# Interferon gamma: QDPYVKEAENLKKYFNAGHSDVADNGTLFLGILKNWKEESDRKIMQSQIVSFYFKLFKNFKDDQSIQKSVETIKEDMNVKFFNSNKKKRDDFEKLTNYSVTDLNVQRKAIHELIQVMAELSPAAKTGKRKRSQMLFRG
# What was measured:
# [1] = system: primary mouse osteoclast precursor cells (primary mouse bone marrow monocytes); experiment: osteoclast resorption assay on bio-mineralized matrix, MCSF dependency (FIG. 1); type: cell-based; conditions: RANKL (40 ng/ml) present, as a function of MCSF concentration
# From the text: The sequence is divided into two phases. In phase I, the matrix synthesis with osteoblasts occurs; the latter, after production of the matrix (approximately 25 days), are removed from the matrix. The subsequent phase II encompasses the use of the matrix for the osteoclast resorption assay. In this connection, the method in this example was employed in order to examine the resorption activity of primary mouse osteoclast precursor cells (primary mouse bone marrow monocytes) as a function of the concentration of MCSF (macrophage colony-stimulating factor).
# (§1) For the synthesis of a bone-like physiological matrix, the human osteoblast precursor cell line SAOS-2 (DSMZ ACC 243, DSMZ, Braunschweig) is used in this embodiment. The cells are seeded on cell culturing plates. […]
# (§2) The resorption assay is based on the combination of two methods with each other. […] For determining the resorption surface area the dried plates were subsequently scanned by a transmitted light scanner and evaluated e.g. by means of Image Quant. In this connection, the scanned surface area was determined and white surfaces differentiated from black surfaces. The volume of the white surface area can then be calculated by means of the calibration line (see FIG. 2) into the actual resorted surface area.
# [2] = system: osteoclasts differentiated by RANKL from mouse osteoclast precursor cell line RAW 264.7; experiment: osteoclast resorption assay on bio-mineralized matrix, inhibition study (FIG. 4); type: cell-based; conditions: RAW 264.7 differentiated by RANKL addition (40 ng/ml)
# Method: Moreover, particularly in medical research the examination of inhibiting materials or activators of osteoclast activity is especially of interest. As an example, in FIG. 4 it is shown that the osteoclast activity depends on the inhibitor interferon-y. The osteoclasts were differentiated by RANKL addition (40 ng/ml)) from a mouse osteoclast precursor cell line (RAW 264.7). […] Accordingly, the invention can also be utilized for inhibition studies in relation to osteoclast resorption activity.
# as §1, with “plates. The differentiation of the cells is realized by addition of ascorbate (300 μmol/l) and β-glycerophosphate (10 mmol/l) to the medium (alpha MEM, Biochrom, 10% FCS).” for “plates.”
# as §2
Molecule,resorption activity of the differentiated osteoclasts [1],osteoclast activity (resorption activity) [2]
B1,depends on the quantity of added MCSF,–
B2,–,concentration-dependent inhibition
